B1: anti-HLA-G nanobody clone #9 (VHH)
VHH: QVQLVESGGGSVQAGGSLRLSCEASGRTYSSNCMGWFRQAPGKERENVAAIYTGGDGITYADSVKGRFTISQDKLKNMLYLQMDSLKPEDTAMYYCAADPNRRRMGVGGSCLRANFGPGGQGTQVTVSS
notes: also called anti-tumor antigen nanobody; anti-HLA-G nanobody (NB)
B2: anti-HLA-G nanobody clone #20 (VHH)
VHH: EVQLVESGGGSVRPGETLRLSCTASGFTVDDSDMSWYRQAPGDECELVSSITSGGGKYYSHPVKGRFTIFRDKGKNTMYLQMNSLVPEDTGVYYCVAPAWTGYGCTWGQGTQVTVSS
notes: as for B1

Legend:
[1] = target: HLA-G recombinant protein (CAT #: TP305216, Origene) (human) (UniProt P17693); test: competitive ELISA, HLA-G coated, competitor biotinylated KIR2DL4
[2] = target: HLA-G recombinant protein (CAT #: TP305216, Origene) (human) (UniProt P17693); test: competitive ELISA, HLA-G coated, competitor biotinylated LILRB1
[3] = target: T1, HLA-G recombinant protein (CAT #: TP305216, Origene) (human, UniProt P17693 25-338, limits assumed); test: competitive ELISA, HLA-G coated, competitor biotinylated LILRB1; blocking normalized to 87G
T1 construct: Bought recombinant protein coated on the plate; also called human leukocyte antigen-G
Description: (§1) The procedure is as follows. HLA-G recombinant protein (CAT #: TP305216, Origene) (0.2 mg/ml, 100 μl each well) was coated on 96-well plate overnight at 4° C. Next day, the coating buffer was discarded, and blocked with 3% skin milk for 2 hr at room temperature, followed by washing 5 times with PBST (0.05% Tween in PBS). […] After 9 times of washing, each well was incubated with 100 μl PBST containing streptavidin-HRP conjugates (ThermoFisher, Cat No: N100, dilution titer: […]) for 2 hr at room temperature. After 9 times of washing with PBST, 50 μl of TMB substrate for detecting HRP activity (ThermoFisher, Cat No:N301) was added. The reactions were stopped by adding 50 μl stop solution (ThermoFisher, Cat No:N600), and it was measured by ELISA reader using 450 nm channel.

[4] = target: T1, HLA-G recombinant protein (CAT #: …); test: competitive ELISA, HLA-G coated, competitor biotinylated KIR2DL4; blocking normalized to 87G
Description: as §1

| Molecule | IC50 [1] | IC50 [2] | IC50 [3] | IC50 [4] |
| --- | --- | --- | --- | --- |
| commercial anti-HLA-G monoclonal antibody (87G) | 0.0414 µg/mL | 0.101 µg/mL | – | – |
| B1 | – | – | 0.000825 µg/mL | 0.00614 µg/mL |
| B2 | – | – | 0.000174 µg/mL | 0.814 µg/mL |

From US20220306747A1 (CHINA MEDICAL UNIVERSITY HOSPITAL, published 2022)
